# Experimental data: US20070059284A1
# Target: Human IL-21 Receptor (human) (UniProt Q9HBE5)
# Experiment: cell-based or functional assay
substance,measurement,value
human IL-21-saporin immunotoxin conjugate (from UniProt P20656 25-277),3H-thymidine incorporation of conjugate-treated MOLT-13 cells relative to IL-21 treated MOLT-13 cells,70%
same,density of conjugate-treated DEL cells relative to untreated cells (3H-thymidine),25%
same,density of conjugate-treated HuT-78 cells relative to untreated cells (3H-thymidine),33%
same,density of conjugate-treated HuT-102 cells relative to untreated cells (3H-thymidine),20%
same,density of conjugate-treated YT cells relative to untreated cells (3H-thymidine),33%
same,"growth inhibition of IM-9 cells at the maximal conjugate concentration (250 ng/ml), Alamar Blue proliferation assay",79%
same,"growth inhibition of RAMOS cells at the maximal conjugate concentration (250 ng/ml), Alamar Blue proliferation assay",65%
